T1: ADAMTS5 (human, UniProt Q9UNA0 262-622, limits assumed)
T1 sequence (looked up): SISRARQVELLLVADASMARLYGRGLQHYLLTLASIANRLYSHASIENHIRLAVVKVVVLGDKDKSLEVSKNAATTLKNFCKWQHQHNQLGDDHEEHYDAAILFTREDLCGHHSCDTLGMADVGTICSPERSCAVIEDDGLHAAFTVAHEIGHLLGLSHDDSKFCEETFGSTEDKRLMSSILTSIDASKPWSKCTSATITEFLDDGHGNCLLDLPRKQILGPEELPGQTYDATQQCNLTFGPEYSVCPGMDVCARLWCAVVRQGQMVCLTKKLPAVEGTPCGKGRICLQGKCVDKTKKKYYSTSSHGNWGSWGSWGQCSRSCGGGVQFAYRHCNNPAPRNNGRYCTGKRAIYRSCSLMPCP

T2: MMP2 (human, UniProt P08253 110-660, limits assumed)
T2 sequence (looked up): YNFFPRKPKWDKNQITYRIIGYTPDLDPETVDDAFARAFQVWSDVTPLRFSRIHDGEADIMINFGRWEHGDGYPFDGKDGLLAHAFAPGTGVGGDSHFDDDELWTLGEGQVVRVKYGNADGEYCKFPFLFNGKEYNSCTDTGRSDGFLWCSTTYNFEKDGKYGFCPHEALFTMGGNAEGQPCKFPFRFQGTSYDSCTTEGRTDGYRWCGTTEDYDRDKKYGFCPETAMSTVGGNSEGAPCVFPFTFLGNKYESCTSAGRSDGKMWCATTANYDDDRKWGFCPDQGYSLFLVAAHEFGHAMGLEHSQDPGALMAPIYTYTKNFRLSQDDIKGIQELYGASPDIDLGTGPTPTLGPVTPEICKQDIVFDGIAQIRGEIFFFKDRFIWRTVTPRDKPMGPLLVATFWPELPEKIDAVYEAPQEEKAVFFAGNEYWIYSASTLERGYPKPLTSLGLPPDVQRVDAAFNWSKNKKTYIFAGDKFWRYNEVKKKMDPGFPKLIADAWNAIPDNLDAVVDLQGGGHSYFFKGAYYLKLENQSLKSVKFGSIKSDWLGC

T3: ADAMTS4 (human, UniProt O75173 213-685, limits assumed)
T3 sequence (looked up): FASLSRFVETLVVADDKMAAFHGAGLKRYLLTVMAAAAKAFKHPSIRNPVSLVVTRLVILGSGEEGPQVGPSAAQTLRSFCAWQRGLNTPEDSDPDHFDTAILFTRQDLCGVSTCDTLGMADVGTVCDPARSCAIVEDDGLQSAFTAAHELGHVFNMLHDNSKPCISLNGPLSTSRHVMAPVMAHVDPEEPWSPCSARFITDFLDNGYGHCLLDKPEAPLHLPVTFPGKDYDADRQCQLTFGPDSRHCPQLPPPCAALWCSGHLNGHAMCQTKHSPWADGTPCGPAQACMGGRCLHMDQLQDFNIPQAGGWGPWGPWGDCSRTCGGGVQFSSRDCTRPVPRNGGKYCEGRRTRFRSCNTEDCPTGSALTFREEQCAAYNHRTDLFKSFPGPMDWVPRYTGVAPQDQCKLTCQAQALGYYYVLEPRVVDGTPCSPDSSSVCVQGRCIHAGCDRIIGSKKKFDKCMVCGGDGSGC

T4: MMP1 (human, UniProt P03956 100-469, limits assumed)
T4 sequence (looked up): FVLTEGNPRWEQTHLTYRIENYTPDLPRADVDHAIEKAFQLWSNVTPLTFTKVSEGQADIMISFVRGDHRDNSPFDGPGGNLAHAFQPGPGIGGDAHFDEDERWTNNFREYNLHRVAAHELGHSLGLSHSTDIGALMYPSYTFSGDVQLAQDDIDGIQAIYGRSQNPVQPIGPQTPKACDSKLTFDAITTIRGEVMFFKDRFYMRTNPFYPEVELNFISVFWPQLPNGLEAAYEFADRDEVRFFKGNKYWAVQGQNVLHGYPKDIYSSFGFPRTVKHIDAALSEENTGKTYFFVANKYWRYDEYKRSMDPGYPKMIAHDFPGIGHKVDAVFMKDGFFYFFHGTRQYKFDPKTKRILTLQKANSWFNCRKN

T5: Cathepsin G (UniProt P08311 21-244)
T5 sequence (looked up): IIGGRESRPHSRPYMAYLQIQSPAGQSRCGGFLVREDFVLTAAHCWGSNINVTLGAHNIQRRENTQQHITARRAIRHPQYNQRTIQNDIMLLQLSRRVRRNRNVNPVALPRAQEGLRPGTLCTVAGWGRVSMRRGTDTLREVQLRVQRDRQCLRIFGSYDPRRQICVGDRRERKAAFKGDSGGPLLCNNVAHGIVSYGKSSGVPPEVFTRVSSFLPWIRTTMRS


Tests used:
Test in all cases: cell-based or functional assay
bovine trypsin = bovine trypsin (bovine, UniProt P00760 24-246)
Chain of bovine trypsin (P00760 24-246): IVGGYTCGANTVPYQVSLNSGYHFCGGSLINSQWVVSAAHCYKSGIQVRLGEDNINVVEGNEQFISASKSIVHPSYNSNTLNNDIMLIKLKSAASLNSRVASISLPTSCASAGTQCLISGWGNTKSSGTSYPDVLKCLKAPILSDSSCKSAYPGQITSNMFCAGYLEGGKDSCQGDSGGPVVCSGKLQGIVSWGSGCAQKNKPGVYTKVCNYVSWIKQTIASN

Elastase = molecular target: Elastase
chymotrypsin = molecular target: chymotrypsin
ADAMTS5 = molecular target: T1, ADAMTS5
MMP2 = molecular target: T2, MMP2
MMP3 = MMP3 (human, UniProt P08254 100-477, limits assumed)
Chain of MMP3 (P08254 100-477 limits assumed): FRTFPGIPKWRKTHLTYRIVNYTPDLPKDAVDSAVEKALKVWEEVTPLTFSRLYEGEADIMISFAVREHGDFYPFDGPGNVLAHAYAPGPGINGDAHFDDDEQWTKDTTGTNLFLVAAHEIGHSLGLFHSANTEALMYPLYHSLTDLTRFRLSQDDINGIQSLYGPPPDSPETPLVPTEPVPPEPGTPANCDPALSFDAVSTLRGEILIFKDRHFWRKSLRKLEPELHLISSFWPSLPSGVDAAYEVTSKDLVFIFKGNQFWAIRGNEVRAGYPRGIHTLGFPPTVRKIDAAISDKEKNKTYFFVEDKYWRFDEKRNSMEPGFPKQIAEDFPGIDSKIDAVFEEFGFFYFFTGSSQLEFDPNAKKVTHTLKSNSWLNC

MMP9 = MMP9 (human, UniProt P14780 107-707, limits assumed)
Chain of MMP9 (P14780 107-707 limits assumed): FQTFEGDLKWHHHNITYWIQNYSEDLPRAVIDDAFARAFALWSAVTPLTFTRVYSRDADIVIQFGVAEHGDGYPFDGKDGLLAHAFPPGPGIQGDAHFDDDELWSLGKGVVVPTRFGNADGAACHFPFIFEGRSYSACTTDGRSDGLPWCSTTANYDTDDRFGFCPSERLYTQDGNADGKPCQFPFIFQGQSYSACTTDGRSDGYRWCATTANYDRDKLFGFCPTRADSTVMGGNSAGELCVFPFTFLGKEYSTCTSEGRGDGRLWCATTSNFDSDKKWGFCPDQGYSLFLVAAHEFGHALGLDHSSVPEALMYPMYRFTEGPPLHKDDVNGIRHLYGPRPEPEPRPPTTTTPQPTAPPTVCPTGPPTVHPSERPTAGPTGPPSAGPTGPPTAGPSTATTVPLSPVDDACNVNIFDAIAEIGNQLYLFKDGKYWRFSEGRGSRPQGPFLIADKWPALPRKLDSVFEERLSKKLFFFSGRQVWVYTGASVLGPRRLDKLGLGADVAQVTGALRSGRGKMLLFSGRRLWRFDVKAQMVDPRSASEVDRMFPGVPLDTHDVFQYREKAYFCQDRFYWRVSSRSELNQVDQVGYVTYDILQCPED

MMP8 = MMP8 (human, UniProt P22894 101-467, limits assumed)
Chain of MMP8 (P22894 101-467 limits assumed): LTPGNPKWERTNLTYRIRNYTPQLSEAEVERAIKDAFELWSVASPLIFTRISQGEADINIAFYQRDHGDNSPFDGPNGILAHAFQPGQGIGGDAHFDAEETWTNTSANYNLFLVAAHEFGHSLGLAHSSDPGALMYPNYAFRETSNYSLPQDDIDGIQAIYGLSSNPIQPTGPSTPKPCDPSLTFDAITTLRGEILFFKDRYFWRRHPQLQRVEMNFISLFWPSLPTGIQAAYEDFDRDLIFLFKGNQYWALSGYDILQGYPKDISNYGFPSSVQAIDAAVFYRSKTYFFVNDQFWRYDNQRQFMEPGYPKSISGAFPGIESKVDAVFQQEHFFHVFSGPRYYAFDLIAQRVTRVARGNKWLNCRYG

ADAMTS4 = molecular target: T3, ADAMTS4
MMP13 = MMP13 (human, UniProt P45452 104-471, limits assumed)
MMP1 = molecular target: T4, MMP1
Cathepsin G = molecular target: T5, Cathepsin G
MMP12 = MMP12 (human, UniProt P39900 106-470, limits assumed)
Chain of MMP12 (P39900 106-470 limits assumed): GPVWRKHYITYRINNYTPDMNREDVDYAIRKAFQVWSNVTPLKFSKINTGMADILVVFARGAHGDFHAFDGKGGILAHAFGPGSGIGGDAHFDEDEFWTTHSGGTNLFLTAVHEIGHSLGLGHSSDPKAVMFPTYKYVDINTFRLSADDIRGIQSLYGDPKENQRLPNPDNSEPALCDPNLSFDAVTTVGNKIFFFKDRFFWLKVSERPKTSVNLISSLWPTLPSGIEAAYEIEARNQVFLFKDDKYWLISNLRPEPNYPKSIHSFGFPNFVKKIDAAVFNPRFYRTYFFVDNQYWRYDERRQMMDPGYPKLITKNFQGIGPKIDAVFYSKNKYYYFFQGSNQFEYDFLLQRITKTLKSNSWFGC

Protease Inhibition (% of WT) (bovine trypsin)	Protease Inhibition (% of WT) (Elastase)	Protease Inhibition (% of WT) (chymotrypsin)	Protease Inhibition (% of WT) (ADAMTS5)	Protease Inhibition (% of WT) (MMP2)	Protease Inhibition (% of WT) (MMP3)	Protease Inhibition (% of WT) (MMP9)	Protease Inhibition (% of WT) (MMP8)	Protease Inhibition (% of WT) (ADAMTS4)	Protease Inhibition (% of WT) (MMP13)	Protease Inhibition (% of WT) (MMP1)	Protease Inhibition (% of WT) (Cathepsin G)	Protease Inhibition (% of WT) (MMP12)	Binder
100 % of WT	50 % of WT	100 % of WT	90 % of WT	110 % of WT	330 % of WT	70 % of WT	40 % of WT	50 % of WT	350 % of WT	390 % of WT			Variant A2M, bait region SEQ ID NO 108 (other) SVSGKPQYMVLVPSLLHTETTEKGCVLLSYLNETVTVSASLESVRGNRSLFTDLEAENDVLHCVAFAVPKSSSNEEVMFLTVQVKGPTQEFKKRTTVMVKNEDSLVFVQTDKSIYKPGQTVKFRVVSMDENFHPLNELIPLVYIQDPKGNRIAQWQSFQLEGGLKQFSFPLSSEPFQGSYKVVVQKKSGGRTEHPFTVEEFVLPKFEVQVTVPKIITILEEEMNVSVCGLYTYGKPVPGHVTVSICRKYSDASDCHGEDSQAFCEKFSGQLNSHGCFYQQVKTKVFQLKRKEYEMKLHTEAQIQEEGTVVELTGRQSSEITRTITKLSFVKVDSHFRQGIPFFGQVRLVDGKGVPIPNKVIFIRGNEANYYSNATTDEHGLVQFSINTTNVMGTSLTVRVNYKDRSPCYGYQWVSEEHEEAHHTAYLVFSPSKSFVHLEPMSHELPCGHTQTVQAHYILNGGTLLGLKKLSFYYLIMAKGGIVRTGTHGLLVKQEDMKGHFSISIPVKSDIAPVARLLIYAVLPTGDVIGDSAKYDVENCLANKVDLSFSPSQSLPASHAHLRVTAAPQSVCALRAVDQSVLLMKPDAELSASSVYNLLPEKDLTGFPGPLNDQDDEDCINRHNVYINGITYTPVSSTNEKDMYSFLEDMGLKAFTNSKIRKPKMCPQLEQYEMHGPEGLRVGEAIPMSIPTSEDLVVQIPENFFGVKLRKYFPETWIWDLVVVNSAGVAEVGVTVPDTITEWKAGAFCLSEDAGLGISSTASLRAFQPFFVELTMPYSVIRGEAFTLKATVLNYLPKCIRVSVQLEASPAFLAVPVEKEQAPHCICANGRQTVSWAVTPKSLGNVNFTVSAEALESQELCGTEVPSVPEHGRKDTVIKPLLVEPEGLEKETTFNSLLCPSGGEVSEELSLKLPPNVVEESARASVSVLGDILGSAMQNTQNLLQMPYGCGEQNMVLFAPNIYVLDYLNETQQLTPEIKSKAIGYLNTGYQRQLNYKHYDGSYSTFGERYGRNQGNTWLTAFVLKTFAQARAYIFIDEAHITQALIWLSQRQKDNGCFRSSGSLLNNAIKGGVEDEVTLSAYITIALLEIPLTVTHPVVRNALFCLESAWKTAQEGDHGSHVYTKALLAYAFALAGNQDKRKEVLKSLNEEAVKKDNSVHWERPQKPKAPVGHFYEPQAPSAEVEMTSYVLLAYLTAQPAPTSEDLTSATNIVKWITKQQNAQGGFSSTQDTVVALHALSKYGAATFTRTGKAAQVTIQSSGTFSSKFQVDNNNRLLLQQVSLPELPGEYSMKVTGEGCVYLQTSLKYNILPEKEEFPFALGVQTLPQTCDEPKAHTSFQISLSVSYTGSRSASNMAIVDVKMVSGFIPLKPTVKMLERSNHVSRTEVSSNHVLIYLDKVSNQTLSLFFTVLQDVPVRDLKPAIVKVYDYYETDEFAIAEYNAPCSKDLGNADYKDDDDKGASHHHHHH
250 % of WT	103 % of WT	100 % of WT	211 % of WT	109 % of WT		100 % of WT	180 % of WT	110 % of WT	146 % of WT	283 % of WT	311 % of WT	124 % of WT	Variant A2M, bait region SEQ ID NO 130 (other) SVSGKPQYMVLVPSLLHTETTEKGCVLLSYLNETVTVSASLESVRGNRSLFTDLEAENDVLHCVAFAVPKSSSNEEVMFLTVQVKGPTQEFKKRTTVMVKNEDSLVFVQTDKSIYKPGQTVKFRVVSMDENFHPLNELIPLVYIQDPKGNRIAQWQSFQLEGGLKQFSFPLSSEPFQGSYKVVVQKKSGGRTEHPFTVEEFVLPKFEVQVTVPKIITILEEEMNVSVCGLYTYGKPVPGHVTVSICRKYSDASDCHGEDSQAFCEKFSGQLNSHGCFYQQVKTKVFQLKRKEYEMKLHTEAQIQEEGTVVELTGRQSSEITRTITKLSFVKVDSHFRQGIPFFGQVRLVDGKGVPIPNKVIFIRGNEANYYSNATTDEHGLVQFSINTTNVMGTSLTVRVNYKDRSPCYGYQWVSEEHEEAHHTAYLVFSPSKSFVHLEPMSHELPCGHTQTVQAHYILNGGTLLGLKKLSFYYLIMAKGGIVRTGTHGLLVKQEDMKGHFSISIPVKSDIAPVARLLIYAVLPTGDVIGDSAKYDVENCLANKVDLSFSPSQSLPASHAHLRVTAAPQSVCALRAVDQSVLLMKPDAELSASSVYNLLPEKDLTGFPGPLNDQDDEDCINRHNVYINGITYTPVSSTNEKDMYSFLEDMGLKAFTNSKIRKPKMCPQLEQYEMHGPSEDLVVQIEGEGEGEGIPENFFGVEAIPMSIPTVEEPHTKLRKYFPETWIWDLVVVNSAGVAEVGVTVPDTITEWKAGAFCLSEDAGLGISSTASLRAFQPFFVELTMPYSVIRGEAFTLKATVLNYLPKCIRVSVQLEASPAFLAVPVEKEQAPHCICANGRQTVSWAVTPKSLGNVNFTVSAEALESQELCGTEVPSVPEHGRKDTVIKPLLVEPEGLEKETTFNSLLCPSGGEVSEELSLKLPPNVVEESARASVSVLGDILGSAMQNTQNLLQMPYGCGEQNMVLFAPNIYVLDYLNETQQLTPEIKSKAIGYLNTGYQRQLNYKHYDGSYSTFGERYGRNQGNTWLTAFVLKTFAQARAYIFIDEAHITQALIWLSQRQKDNGCFRSSGSLLNNAIKGGVEDEVTLSAYITIALLEIPLTVTHPVVRNALFCLESAWKTAQEGDHGSHVYTKALLAYAFALAGNQDKRKEVLKSLNEEAVKKDNSVHWERPQKPKAPVGHFYEPQAPSAEVEMTSYVLLAYLTAQPAPTSEDLTSATNIVKWITKQQNAQGGFSSTQDTVVALHALSKYGAATFTRTGKAAQVTIQSSGTFSSKFQVDNNNRLLLQQVSLPELPGEYSMKVTGEGCVYLQTSLKYNILPEKEEFPFALGVQTLPQTCDEPKAHTSFQISLSVSYTGSRSASNMAIVDVKMVSGFIPLKPTVKMLERSNHVSRTEVSSNHVLIYLDKVSNQTLSLFFTVLQDVPVRDLKPAIVKVYDYYETDEFAIAEYNAPCSKDLGNADYKDDDDKGASHHHHHH

Source: US20230250154A1 (CYTONICS, published 2023)
